This is an account of results in US20250186597A1, “TARGETED IMMUNE ACTIVATION WITH IL-18 IMMUNOCYTOKINES” (BRIGHT PEAK THERAPEUTICS AG, priority 2023, published 2025).

In general, IC50 refers to the concentration at which inhibition is half-maximal. The low end stands for inhibition by little substance, the high end for a need for much substance. By Kd is commonly meant the constant that tells how readily two partners part at equilibrium. For orientation: EC50 means the concentration needed to bring the measured effect to its halfway point. A low value points to a more potent agent.

Assay [1] deals with NK92 cells. In words: Cellular IL-18 Binding Protein resistance assay in NK92 cells (Example 13). The assay is classed as cell-based, human. The following applies: IL-18BP-mediated inhibition of IFNγ secretion, IL-18 analyte 1 nM. How it is done:
The NK cell line NK-92 derived from a patient with lymphoma (ATCC, Cat #CR^L-2407) was cultured in αMEM medium supplemented with 20% FCS-Glutamax, 25 μM B-mercaptoethanol, and 100 IU/ml of recombinant Human Interleukin-2 (IL-2). On the day of experiment, cells were harvested and washed with αMEM medium without IL-2. After counting, cells were seeded at 100 000 cells/well in a 384 well titer plate and incubated at 37° C./5% CO2. Sixteen 2-fold serial dilutions of Fc fused human IL-18 binding protein isoform a (IL-18BPa; R&D systems, Cat #119-BP) were prepared in αMEM medium—1 ng/ml IL-12 containing 2 nM of each IL-18 variants and were added to the NK-92 cells. Final IL-18 analytes concentration was 1 nM and final IL-18BPa concentrations ranged from to 566 nM down to 17 pM.
After 16-20 h incubation at 37° C./5% CO2, 5 μl of supernatant were carefully transferred to a 384 microwells OPTIplate (Perkin Elmer; Cat #6007270) and Interferon-gamma (IFNγ) levels measured using the Human IFNγ AlphaLISA Assay Kit (Perkin Elmer, Cat #AL217C). […] AlphaLisa signal was then measured on an Enspire plate reader (Perkin Elmer) using 680 and 615 nm as excitation and emission wavelengths respectively. Half maximal inhibitory concentration (IC50) was calculated based on a variable slope, four parameter analysis using GraphPad PRISM software.

Assay [2] deals with T1, human IL-18 Binding Protein (IL-18BP) (Homo sapiens, UniProt O95998).
T1 sequence (O95998 31-194): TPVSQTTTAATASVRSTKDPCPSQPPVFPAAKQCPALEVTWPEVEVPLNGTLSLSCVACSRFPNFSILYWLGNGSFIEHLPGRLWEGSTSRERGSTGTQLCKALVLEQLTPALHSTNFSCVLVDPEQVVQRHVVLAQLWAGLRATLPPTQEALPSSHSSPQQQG
In words: IL-18 Binding Protein alphaLISA assay (Example 12). The note with it: human IL-18BP. How it is done:
Wild type or modified IL-18 polypeptides samples were diluted at 5.6 μM in a solution of 1× alphaLISA Immunoassay Buffer provided in the alphaLISA IFNγ Detection kit and were diluted applying 3-fold serial dilutions down to […] in 384 deep well plates. A solution of 10 ng/ml of human IL-18BP-His was prepared with 1×alphaLISA Immunoassay Buffer. IL-18/IL-18BP complex formation was performed incubating 30 μl of IL-18BP solution to IL-18 sample titrations for 1 h at 20° C. IL-18BP standard was prediluted from stock solution supplied in alphaLISA IFNγ Detection kit at 100 ng/ml with 1×alphaLISA Buffer and titration prepared from applying 2-fold serial dilutions. The following solutions were prepared: a 50 μg/ml solution of anti-IL-18BP alphaLISA Acceptor beads, a 5 nM solution of biotinylated anti-IL18BP antibody and a 80 μg/ml light-protected solution of Streptavidin Donor beads in 1×alphaLISA Immunoassay Buffer. […]
5 μl of Biotinylated anti-IL-18BP antibody were added, followed by a short centrifugation step at 150 g, and incubated for 60 minutes at 20° C. under shaking at 750 rpm. […] AlphaLisa signal was then measured on an Enspire plate reader (Perkin Elmer) using 680 and 615 nm as excitation and emission wavelengths respectively. […]
For orientation: In Alpha technology, singlet oxygen from a donor bead excites a nearby acceptor bead.

Assay [3] deals with NK92 cells. In words: IFN gamma secretion assay in NK92 cells (Example 10). The assay is classed as cell-based, human. The note with it: IFNγ secretion, 1 ng/ml IL-12. As for the experimental part:
The IFNγ-secretion stimulating activity of the unconjugated IL-18 variants and corresponding IL-18 immunocytokines was evaluated on NK92 cell line. The NK cell line NK-92 derived from a patient with lymphoma (ATCC, Cat #CRL-2407) was cultured in aMEM medium supplemented with 12.5% FCS, 12.5% horse serum (HS), 50 uM B-mercaptoEthanol, and 2 ng/ml of recombinant Human Interleukin-2 (IL-2).
On the day of experiment, cells were harvested and washed with aMEM medium without IL-2 and resuspended in medium (w/o IL-2) containing 1 ng/ml of recombinant human Interleukin-12 (SinoBiologicals, Cat #CT011-H08H). After counting, cells were seeded at 100 000 cells/well in a 384 well titer plate and incubated at 37° C./5% CO2. Sixteen 4-fold serial dilutions of IL-18 analytes were prepared in aMEM medium—1 ng/ml IL-12 and were added to the NK-92 cells. […]
After 16-20 h incubation at 37° C./5% CO2, 5 μl of supernatant were carefully transferred to a 384 microwells OPTIPlate (Perkin Elmer; Cat #6007270) and Interferon-gamma (IFNγ) levels measured using the Human IFNγ AlphaLISA Assay Kit (Perkin Elmer, Cat #AL217C). […] AlphaLisa signal was then measured on an Enspire plate reader (Perkin Elmer) using 680 and 615 nm as excitation and emission wavelengths respectively. Half maximal effective concentration (EC50) was calculated based on a variable slope, four parameter analysis using GraphPad PRISM software.

B1: SEQ ID NO: 30: IL-18 polypeptide: E6K, V11I, C38A, K53A, T63A, C76A, C127A (protein)
chain: YFGKLKSKLSIIRNLNDQVLFIDQGNRPLFEDMTDSDARDNAPRTIFIISMYADSQPRGMAVAISVKCEKISTLSAENKIISFKEMNPPDNIKDTKSDIIFFQRSVPGHDNKMQFESSSYEGYFLAAEKERDLFKLILKKEDELGDRSIMFTVQNED
B1 displayed a 50% inhibitory concentration (IC50) with NK92 cells [1] of 488 nM. Further, the Kd in assay [2] turned out to be 24.6 nM. The molecule further had an EC50 in the assay with NK92 cells [3] of 0.002 nM.
